Data on 1 substance can be found in patent US20060165707A1.

Test [1] addresses … / HLA-A2 / β2m K58→E on T2 cells (human).
In test [2] the target is … / HLA-A2 / wild-type β2m on T2 cells (human).

As for “HLA-A2 restricted parvovirus B19 specific CTL line (cells without a defined receptor)”, the figures for the specific lysis (51Cr release), E:T 22:1, 4 hours in test [1] and in test [2] were 2.6% and 7.3%, respectively.
